# Laboratory results taken from patent US20140294898A1 (published 2014).
# Positions of bridges follow the written chain, without caps; N, C: chain ends. Non-standard residues stand in square brackets, D forms with d. NMeNle = CCCC[C@H](NC)C(=O)O; NMeA = CN[C@@H](C)C(=O)O
# B1: Compound No. 2 (peptide)
# peptide: {CH2CO}-F[NMeA]NPHHSWRW[NMeNle][NMeNle]LCG-NH2
# modifications: thioether N-14
# SMILES: CCCC[C@H]1C(=O)N(C)[C@@H](CCCC)C(=O)N[C@@H](CC(C)C)C(=O)N[C@H](C(=O)NCC(N)=O)CSCC(=O)N[C@@H](Cc2ccccc2)C(=O)N(C)[C@@H](C)C(=O)N[C@@H](CC(N)=O)C(=O)N2CCC[C@H]2C(=O)N[C@@H](Cc2c[nH]cn2)C(=O)N[C@@H](Cc2c[nH]cn2)C(=O)N[C@@H](CO)C(=O)N[C@@H](Cc2c[nH]c3ccccc23)C(=O)N[C@@H](CCCNC(=N)N)C(=O)N[C@@H](Cc2c[nH]c3ccccc23)C(=O)N1C
# B2: Compound No. 71 (peptide)
# peptide: FFXGDVFYGWYLCG
# HELM: PEPTIDE1{[O=C(C[*:3])[*:2]].F.[meF].[CCCC[C@@H](C(=O)[*:2])N(C)[*:1]].[Sar].D.V.[meF].Y.[Sar].W.Y.L.C.G.[am]}$PEPTIDE1,PEPTIDE1,1:R3-14:R3$$$V2.0
# SMILES: CCCC[C@H]1C(=O)N(C)CC(=O)N[C@@H](CC(=O)O)C(=O)N[C@@H](C(C)C)C(=O)N(C)[C@@H](Cc2ccccc2)C(=O)N[C@@H](Cc2ccc(O)cc2)C(=O)N(C)CC(=O)N[C@@H](Cc2c[nH]c3ccccc23)C(=O)N[C@@H](Cc2ccc(O)cc2)C(=O)N[C@@H](CC(C)C)C(=O)N[C@H](C(=O)NCC(N)=O)CSCC(=O)N[C@@H](Cc2ccccc2)C(=O)N(C)[C@@H](Cc2ccccc2)C(=O)N1C
# B3: Compound No. 99 (peptide)
# peptide: {CH2CO}-FLIVIRDRVFRCG-NH2
# modifications: thioether N-12
# How the values were obtained:
# [1] = molecular target: human PD-L1 on cells (human, UniProt Q9NZQ7 19-290); assay: cell binding assay, blocking of PD-1-Ig (PE) to LK35.2-hPD-L1 cells
# [2] = molecular target: T1, hPDL1(19-239)-TVMV-His (recombinant human PD-L1-TVMV-His) (UniProt Q9NZQ7 19-239); assay: HTRF PD-1/PD-L1 binding inhibition
# [3] = molecular target: T1, hPDL1(19-239)-TVMV-His (recombinant …); assay: HTRF competition with biotinylated Compound No. 71
# Sequence of human PD-L1 on cells (Q9NZQ7 19-290): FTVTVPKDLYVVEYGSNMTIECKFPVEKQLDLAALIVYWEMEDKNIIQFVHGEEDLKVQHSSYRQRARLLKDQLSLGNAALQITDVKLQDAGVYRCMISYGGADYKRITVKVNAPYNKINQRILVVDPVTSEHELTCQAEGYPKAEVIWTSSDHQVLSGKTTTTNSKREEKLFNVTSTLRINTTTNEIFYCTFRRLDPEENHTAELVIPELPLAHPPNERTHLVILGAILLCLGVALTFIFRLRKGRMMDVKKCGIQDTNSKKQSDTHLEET
# T1 sequence (Q9NZQ7 other isoform, or with tags, fused parts or gaps): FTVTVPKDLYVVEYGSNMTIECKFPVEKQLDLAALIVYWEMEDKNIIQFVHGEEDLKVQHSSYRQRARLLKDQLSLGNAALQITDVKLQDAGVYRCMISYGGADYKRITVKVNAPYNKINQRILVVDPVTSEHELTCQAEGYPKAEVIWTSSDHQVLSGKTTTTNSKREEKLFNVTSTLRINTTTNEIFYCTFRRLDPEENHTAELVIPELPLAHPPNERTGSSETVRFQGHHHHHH
Binder,IC50 [1] [nM],IC50 [2] [nM],IC50 [3] [nM]
B1,40,14,584
B2,1,1,83
B3,133,90,4310
